Measured values taken from patent publication US20210139548A1 (published 2021).
*1 amine or outer side, *2 acyl side, *3 side chain or, on linkers, in order; H or OH if unused. Side-chain parts run from the residue outwards. The star is where a group is joined. C18 diacid = O=C(O)CCCCCCCCCCCCCCCCC(=O)*; γGlu = O=C(O)[C@H](CCC(=O)[*:2])N[*:1]; Isovaleryl = CC(C)CC(=O)*; AEEA = NCCOCCOCC(=O)O

T1: human neuropeptide Y2 receptor (human, UniProt P49146 1-381)
T1 construct: whole, on cells; also called hNPY2 receptor; hNPY2-R
T1 sequence (looked up): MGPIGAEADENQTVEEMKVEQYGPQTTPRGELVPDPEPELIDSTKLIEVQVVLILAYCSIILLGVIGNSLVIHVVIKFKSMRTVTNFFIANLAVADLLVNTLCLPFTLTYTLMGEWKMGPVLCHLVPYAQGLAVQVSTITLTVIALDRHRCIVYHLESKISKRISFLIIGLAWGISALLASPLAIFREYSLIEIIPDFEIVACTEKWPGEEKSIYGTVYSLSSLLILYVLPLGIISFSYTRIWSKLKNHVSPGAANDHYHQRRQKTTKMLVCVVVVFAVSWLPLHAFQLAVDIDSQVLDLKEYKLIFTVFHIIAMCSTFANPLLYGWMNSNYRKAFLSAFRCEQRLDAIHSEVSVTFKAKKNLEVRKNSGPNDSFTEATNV

B1: Compound 178 (peptide)
peptide: Isovaleryl-APEK([AEEA-AEEA-γGlu-C18 diacid])PEEDATPEETERYYVSLRHYYNWLTRQRY-NH2
SMILES: CC(C)CC(=O)N[C@@H](C)C(=O)N1CCC[C@H]1C(=O)N[C@@H](CCC(=O)O)C(=O)N[C@@H](CCCCNC(=O)COCCOCCNC(=O)COCCOCCNC(=O)CC[C@H](NC(=O)CCCCCCCCCCCCCCCCC(=O)O)C(=O)O)C(=O)N1CCC[C@H]1C(=O)N[C@@H](CCC(=O)O)C(=O)N[C@@H](CCC(=O)O)C(=O)N[C@@H](CC(=O)O)C(=O)N[C@@H](C)C(=O)N[C@H](C(=O)N1CCC[C@H]1C(=O)N[C@@H](CCC(=O)O)C(=O)N[C@@H](CCC(=O)O)C(=O)N[C@H](C(=O)N[C@@H](CCC(=O)O)C(=O)N[C@@H](CCCNC(=N)N)C(=O)N[C@@H](Cc1ccc(O)cc1)C(=O)N[C@@H](Cc1ccc(O)cc1)C(=O)N[C@H](C(=O)N[C@@H](CO)C(=O)N[C@@H](CC(C)C)C(=O)N[C@@H](CCCNC(=N)N)C(=O)N[C@@H](Cc1c[nH]cn1)C(=O)N[C@@H](Cc1ccc(O)cc1)C(=O)N[C@@H](Cc1ccc(O)cc1)C(=O)N[C@@H](CC(N)=O)C(=O)N[C@@H](Cc1c[nH]c2ccccc12)C(=O)N[C@@H](CC(C)C)C(=O)N[C@H](C(=O)N[C@@H](CCCNC(=N)N)C(=O)N[C@@H](CCC(N)=O)C(=O)N[C@@H](CCCNC(=N)N)C(=O)N[C@@H](Cc1ccc(O)cc1)C(N)=O)[C@@H](C)O)C(C)C)[C@@H](C)O)[C@@H](C)O
B2: Compound 179 (peptide)
peptide: Isovaleryl-APAK([AEEA-AEEA-γGlu-C18 diacid])PEEDASPAELQRYYVSLRHYYNWLTRQRY-NH2
SMILES: CC(C)CC(=O)N[C@@H](C)C(=O)N1CCC[C@H]1C(=O)N[C@@H](C)C(=O)N[C@@H](CCCCNC(=O)COCCOCCNC(=O)COCCOCCNC(=O)CC[C@H](NC(=O)CCCCCCCCCCCCCCCCC(=O)O)C(=O)O)C(=O)N1CCC[C@H]1C(=O)N[C@@H](CCC(=O)O)C(=O)N[C@@H](CCC(=O)O)C(=O)N[C@@H](CC(=O)O)C(=O)N[C@@H](C)C(=O)N[C@@H](CO)C(=O)N1CCC[C@H]1C(=O)N[C@@H](C)C(=O)N[C@@H](CCC(=O)O)C(=O)N[C@@H](CC(C)C)C(=O)N[C@@H](CCC(N)=O)C(=O)N[C@@H](CCCNC(=N)N)C(=O)N[C@@H](Cc1ccc(O)cc1)C(=O)N[C@@H](Cc1ccc(O)cc1)C(=O)N[C@H](C(=O)N[C@@H](CO)C(=O)N[C@@H](CC(C)C)C(=O)N[C@@H](CCCNC(=N)N)C(=O)N[C@@H](Cc1c[nH]cn1)C(=O)N[C@@H](Cc1ccc(O)cc1)C(=O)N[C@@H](Cc1ccc(O)cc1)C(=O)N[C@@H](CC(N)=O)C(=O)N[C@@H](Cc1c[nH]c2ccccc12)C(=O)N[C@@H](CC(C)C)C(=O)N[C@H](C(=O)N[C@@H](CCCNC(=N)N)C(=O)N[C@@H](CCC(N)=O)C(=O)N[C@@H](CCCNC(=N)N)C(=O)N[C@@H](Cc1ccc(O)cc1)C(N)=O)[C@@H](C)O)C(C)C
B3: Compound 180 (peptide)
peptide: Isovaleryl-APEK([AEEA-AEEA-γGlu-C18 diacid])PEEDASPEETQQYYVSLRHYYNWLTRQRY-NH2
SMILES: CC(C)CC(=O)N[C@@H](C)C(=O)N1CCC[C@H]1C(=O)N[C@@H](CCC(=O)O)C(=O)N[C@@H](CCCCNC(=O)COCCOCCNC(=O)COCCOCCNC(=O)CC[C@H](NC(=O)CCCCCCCCCCCCCCCCC(=O)O)C(=O)O)C(=O)N1CCC[C@H]1C(=O)N[C@@H](CCC(=O)O)C(=O)N[C@@H](CCC(=O)O)C(=O)N[C@@H](CC(=O)O)C(=O)N[C@@H](C)C(=O)N[C@@H](CO)C(=O)N1CCC[C@H]1C(=O)N[C@@H](CCC(=O)O)C(=O)N[C@@H](CCC(=O)O)C(=O)N[C@H](C(=O)N[C@@H](CCC(N)=O)C(=O)N[C@@H](CCC(N)=O)C(=O)N[C@@H](Cc1ccc(O)cc1)C(=O)N[C@@H](Cc1ccc(O)cc1)C(=O)N[C@H](C(=O)N[C@@H](CO)C(=O)N[C@@H](CC(C)C)C(=O)N[C@@H](CCCNC(=N)N)C(=O)N[C@@H](Cc1c[nH]cn1)C(=O)N[C@@H](Cc1ccc(O)cc1)C(=O)N[C@@H](Cc1ccc(O)cc1)C(=O)N[C@@H](CC(N)=O)C(=O)N[C@@H](Cc1c[nH]c2ccccc12)C(=O)N[C@@H](CC(C)C)C(=O)N[C@H](C(=O)N[C@@H](CCCNC(=N)N)C(=O)N[C@@H](CCC(N)=O)C(=O)N[C@@H](CCCNC(=N)N)C(=O)N[C@@H](Cc1ccc(O)cc1)C(N)=O)[C@@H](C)O)C(C)C)[C@@H](C)O
B4: Compound 181 (peptide)
peptide: Isovaleryl-APEK([AEEA-AEEA-γGlu-C18 diacid])PEADASPEELQRYYVALRHYYNWLTRQRY-NH2
SMILES: CC(C)CC(=O)N[C@@H](C)C(=O)N1CCC[C@H]1C(=O)N[C@@H](CCC(=O)O)C(=O)N[C@@H](CCCCNC(=O)COCCOCCNC(=O)COCCOCCNC(=O)CC[C@H](NC(=O)CCCCCCCCCCCCCCCCC(=O)O)C(=O)O)C(=O)N1CCC[C@H]1C(=O)N[C@@H](CCC(=O)O)C(=O)N[C@@H](C)C(=O)N[C@@H](CC(=O)O)C(=O)N[C@@H](C)C(=O)N[C@@H](CO)C(=O)N1CCC[C@H]1C(=O)N[C@@H](CCC(=O)O)C(=O)N[C@@H](CCC(=O)O)C(=O)N[C@@H](CC(C)C)C(=O)N[C@@H](CCC(N)=O)C(=O)N[C@@H](CCCNC(=N)N)C(=O)N[C@@H](Cc1ccc(O)cc1)C(=O)N[C@@H](Cc1ccc(O)cc1)C(=O)N[C@H](C(=O)N[C@@H](C)C(=O)N[C@@H](CC(C)C)C(=O)N[C@@H](CCCNC(=N)N)C(=O)N[C@@H](Cc1c[nH]cn1)C(=O)N[C@@H](Cc1ccc(O)cc1)C(=O)N[C@@H](Cc1ccc(O)cc1)C(=O)N[C@@H](CC(N)=O)C(=O)N[C@@H](Cc1c[nH]c2ccccc12)C(=O)N[C@@H](CC(C)C)C(=O)N[C@H](C(=O)N[C@@H](CCCNC(=N)N)C(=O)N[C@@H](CCC(N)=O)C(=O)N[C@@H](CCCNC(=N)N)C(=O)N[C@@H](Cc1ccc(O)cc1)C(N)=O)[C@@H](C)O)C(C)C
B5: Compound 182 (peptide)
peptide: Isovaleryl-APEK([AEEA-AEEA-γGlu-C18 diacid])PEEDGSPEELQRYYVELRHYYNWLTRQRY-NH2
SMILES: CC(C)CC(=O)N[C@@H](C)C(=O)N1CCC[C@H]1C(=O)N[C@@H](CCC(=O)O)C(=O)N[C@@H](CCCCNC(=O)COCCOCCNC(=O)COCCOCCNC(=O)CC[C@H](NC(=O)CCCCCCCCCCCCCCCCC(=O)O)C(=O)O)C(=O)N1CCC[C@H]1C(=O)N[C@@H](CCC(=O)O)C(=O)N[C@@H](CCC(=O)O)C(=O)N[C@@H](CC(=O)O)C(=O)NCC(=O)N[C@@H](CO)C(=O)N1CCC[C@H]1C(=O)N[C@@H](CCC(=O)O)C(=O)N[C@@H](CCC(=O)O)C(=O)N[C@@H](CC(C)C)C(=O)N[C@@H](CCC(N)=O)C(=O)N[C@@H](CCCNC(=N)N)C(=O)N[C@@H](Cc1ccc(O)cc1)C(=O)N[C@@H](Cc1ccc(O)cc1)C(=O)N[C@H](C(=O)N[C@@H](CCC(=O)O)C(=O)N[C@@H](CC(C)C)C(=O)N[C@@H](CCCNC(=N)N)C(=O)N[C@@H](Cc1c[nH]cn1)C(=O)N[C@@H](Cc1ccc(O)cc1)C(=O)N[C@@H](Cc1ccc(O)cc1)C(=O)N[C@@H](CC(N)=O)C(=O)N[C@@H](Cc1c[nH]c2ccccc12)C(=O)N[C@@H](CC(C)C)C(=O)N[C@H](C(=O)N[C@@H](CCCNC(=N)N)C(=O)N[C@@H](CCC(N)=O)C(=O)N[C@@H](CCCNC(=N)N)C(=O)N[C@@H](Cc1ccc(O)cc1)C(N)=O)[C@@H](C)O)C(C)C

Each binder was assayed against T1, human neuropeptide Y2 receptor (assay: radioligand competition (125I-PYY(1-36)), hNPY2R membranes).
Procedure, shortened: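 Commercial human Y2 receptor membranes (0.5 μg protein/well) were incubated with peptide for 2 h at room temperature in 50 mM HEPES, 5 mM MgCl₂, 1 mM CaCl₂, pH 7.4, with 0.2% ovalbumin. Bound radioligand was separated on PEI-soaked GF/C filters and counted by scintillation, and IC₅₀ came from nonlinear sigmoidal regression.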

Q: How did the Ki turn out when B1 was run?
A: 2.05 nM

Q: Which Ki does the source give for B2 here?
A: 1 nM

Q: B3 was tested. Which Ki did it give?
A: 3.85 nM

Q: For B4, which Ki is on record?
A: 0.67 nM

Q: How did the Ki turn out when B5 was run?
A: 3.45 nM
